# Results reported in patent US20250101111A1 (ARGENX, published 2025).
# Numbering of substitutions follows the chain as printed. Names may count otherwise.
# T1: human FcγRIIa-131R (human, UniProt P12318 34-218, C-terminal biotin)
# T1 construct: Bought, C-terminally biotinylated; captured on a streptavidin sensor
# T1 sequence (looked up): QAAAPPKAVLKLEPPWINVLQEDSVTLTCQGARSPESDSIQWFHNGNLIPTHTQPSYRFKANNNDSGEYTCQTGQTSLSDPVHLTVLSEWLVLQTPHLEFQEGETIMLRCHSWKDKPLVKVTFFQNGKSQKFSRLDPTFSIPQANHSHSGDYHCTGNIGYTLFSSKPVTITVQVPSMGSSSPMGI
# T2: human FcγRIIa-131H (human, UniProt P12318 34-218, C-terminal biotin)
# T2 construct: Bought, C-terminally biotinylated; captured on a streptavidin sensor
# T2 sequence (looked up): T1 sequence (looked up) with R134H
# B1: Fc-IHH (other, human, UniProt P01857-1 104-330, looked up)
# chain: DKTHTCPPCPAPELLGGPSVFLFPPKPKDTLMASRTPEVTCVVVDVSHEDPEVKFNWYVDGVEVHNAKTKPREEQYNSTYRVVSVLTVLAQDWLNGKEYKCKVSNKALPAPIEKTISKAKGQPREPQVYTLPPSRDELTKNQVSLTCLVKGFYPSDIAVEWESNGQPENNYKTTPPVLDSDGSFFLYSKLTVDKSRWQQGNVFSCSVMHEALHNAYTQKSLSLSPGK
# notes: domain: Fc fragment; IHH = I253A H310A H435A (EU numbering); also called IgG1-Fc-IHH
# Tests used:
# [1] = target: T3, human FcγRIa (human, UniProt P12314 16-288); test: SPR (IBIS MX96), FcγR captured on sensor, Fc fragment titrated, pH 7.4, equilibrium 1:1 fit
# T3 construct: Bought, C-terminally His-tagged; captured on the sensor by biotinylated anti-His mIgG1; also called hFcγRIa; not shown: C-terminal His tag
# T3 sequence (P12314 16-288 limits assumed): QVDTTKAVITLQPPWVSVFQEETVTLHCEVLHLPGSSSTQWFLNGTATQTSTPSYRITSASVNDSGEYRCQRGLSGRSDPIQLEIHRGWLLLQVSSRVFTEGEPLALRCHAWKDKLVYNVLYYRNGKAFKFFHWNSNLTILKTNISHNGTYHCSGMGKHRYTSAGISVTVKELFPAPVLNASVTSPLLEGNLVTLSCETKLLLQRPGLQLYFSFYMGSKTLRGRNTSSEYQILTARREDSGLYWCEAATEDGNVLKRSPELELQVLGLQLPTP
# Method: (§1) The sensor surface was regenerated between the cycles by subsequent injections of 20 mM Tris-HCl, 150 mM NaCl pH 8.8 and 20 mM H₃PO₄ pH 2.4. […] Regeneration of the sensor surface between the cycles was performed by injection of 10 mM Gly-HCl pH 2.4. Affinity calculations were carried out by performing an equilibrium analysis interpolating to an Rmax of 200 to 600, depending on the assay, and fitting a 1:1 Langmuir binding model, assuming equilibrium to be reached after 360s of IgG-Fc containing analyte injections. Analysis and calculations were performed using Scrubber Software Version 2 (BioLogic Software), Excel (Microsoft) and Graphpad Prism (Prism).
# [2] = target: T4, human FcRn, endogenous, in THP-1 cells and blood monocytes (human, UniProt P55899 24-365; P61769 21-119); test: intracellular FcRn occupancy assay, flow cytometry: THP-1 FcγRIIa K.O. cells preloaded with IVIg, free FcRn stained with DL650-labeled anti-FcRn Fab
# T4 construct: whole, on cells; Mainly intracellular; measured in intact or permeabilised cells
# T4 sequence (P55899 24-365 limits assumed, chain 1 of 2): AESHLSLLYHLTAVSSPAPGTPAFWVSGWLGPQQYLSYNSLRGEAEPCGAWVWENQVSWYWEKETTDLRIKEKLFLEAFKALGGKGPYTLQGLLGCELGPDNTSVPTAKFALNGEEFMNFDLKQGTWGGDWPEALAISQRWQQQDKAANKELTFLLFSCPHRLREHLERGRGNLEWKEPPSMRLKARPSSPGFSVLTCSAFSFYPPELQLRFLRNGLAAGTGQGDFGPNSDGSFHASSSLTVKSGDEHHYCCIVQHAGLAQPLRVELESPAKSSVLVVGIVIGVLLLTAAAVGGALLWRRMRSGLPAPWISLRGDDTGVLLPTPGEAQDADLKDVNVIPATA
# T4 sequence (P61769 21-119 limits assumed, chain 2 of 2): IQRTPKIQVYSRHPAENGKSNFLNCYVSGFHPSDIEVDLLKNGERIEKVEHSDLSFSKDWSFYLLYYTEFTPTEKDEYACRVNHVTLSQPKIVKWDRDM
# Method: In short, 1×10⁵ cells were loaded with 5-fold dilution series of IgG variants and fragments thereof for 2 h, ranging from 4 to 500 nM under culture conditions, as specified above. […] 95 μL of this cell solution was then combined with 5 μL of 20× concentrated dilution series of IgG variants and incubated for another 2 h under culture conditions. Thereafter, cells were transferred to 96-well V-bottom plate (Corning) and incubated on ice for 2 min. Cells were subsequently spun down for 3 min at 450×g at 4° C. and the supernatant was discarded. Following the same procedure, cells were washed five times with 150 μL ice-cold medium, followed by one wash with 150 μL 1×PBS supplemented with 1% (v/v) FCS at pH 7.4 and one wash with 150 μL of 1×PBS supplemented with 1% (v/v) FCS at pH 6.0. Cells were then fixed and permeabilized using both solutions of a Fixation/Permeabilization Kit (BD Biosciences) adapted to pH 6.0 after addition of MES (Thermo Fisher Scientific) to a final concentration of 0.5M, otherwise following manufacturer's instructions. […] Cells were washed twice with 150 μL 1×PBS supplemented with 1% (v/v) FCS at pH 6.0, spun down at 450×g at 4° C. for 3 min and the supernatants were discarded. Finally, cells were resuspended in 50 μL of the same buffer, transferred to Micronics tubes (Micronic) on ice and measured in flow cytometry.
# [3] = target: T5, human FcγRIIIb-NA1 (human, UniProt O75015 17-200, limits assumed, C-terminal biotin); test: SPR, Fc fragments on captured FcγRs, pH 7.4
# T5 construct: In-house, C-terminally biotinylated; captured on a streptavidin sensor; also called hFcγRIIIb-NA1
# Method: as §1
# [4] = target: T6, human FcγRIIIb-NA2 (human, UniProt O75015 17-200, limits assumed, C-terminal biotin); test: SPR, Fc fragments on captured FcγRs, pH 7.4
# T6 construct: In-house, C-terminally biotinylated; captured on a streptavidin sensor; also called hFcγRIIIb-NA2
# Method: as §1
# [5] = target: T7, human FcγRIIIa-158F (human, UniProt P08637 17-208, C-terminal biotin); test: SPR, Fc fragments on captured FcγRs, pH 7.4
# T7 construct: Bought, C-terminally biotinylated; captured on a streptavidin sensor; also called hFcγRIIIa-158F
# Method: as §1
# [6] = target: T8, human FcγRIIIa-158V (human, UniProt P08637 17-208, C-terminal biotin); test: SPR, Fc fragments on captured FcγRs, pH 7.4
# T8 construct: Bought, C-terminally biotinylated; captured on a streptavidin sensor; also called hFcγRIIIa-158V
# Method: as §1
# [7] = target: T1, human FcγRIIa-131R; test: SPR, Fc fragments on captured FcγRs, pH 7.4
# Method: as §1
# [8] = target: T2, human FcγRIIa-131H; test: SPR, Fc fragments on captured FcγRs, pH 7.4
# Method: as §1
binder,measurement,setting,value
B1,Kd,[1],6.1 nM
same,binding result,[2],no binding (tested: 500 nM)
same,fold reduction in binding compared to Fc-WT,[3],≥ 3 fold
same,fold reduction in binding compared to Fc-WT,[4],≥ 3 fold
same,fold reduction in binding compared to Fc-WT,[5],≥ 3 fold
same,fold reduction in binding compared to Fc-WT,[6],≥ 3 fold
same,fold reduction in binding compared to Fc-WT,[7],≥ 3 fold
same,fold reduction in binding compared to Fc-WT,[8],≥ 3 fold
